In PMC12661434:

Target: StayRose (His-tagged StayGold bearing 3-aminotyrosine at Y58) (Cytaeis uchidae)
Assay: SEC; Superdex 75 Increase 10/300 GL, 20 mM Hepes, 150 mM NaCl, pH 7.5, 0.8 ml/min; ~1 mg/ml (38 uM) protein loaded via a 0.5 ml loop

stoichiometry N: 2
Substance: StayRose (His-tagged StayGold bearing 3-aminotyrosine at Y58)
